Laboratory results published in patent US20250282890A1.

Assays:
[1] = molecular target: human PSMA displayed on the surface of LNCaP cells (human) (UniProt Q04609); assay: flow cytometry on LNCaP cells, IgG1 titrated
[2] = molecular target: recombinant human PSMA (prostate-specific membrane antigen), biotin-tagged (human) (UniProt Q04609); assay: ELISA on plates coated with recombinant PSMA, two-fold dilution series, goat anti-human-HRP and TMB
[3] = molecular target: recombinant human PSMA (prostate-specific membrane antigen), biotin-tagged (human) (UniProt Q04609); assay: native ELISA, streptavidin-captured biotin-tagged PSMA, IgG1 titrated
[4] = molecular target: recombinant human PSMA (prostate-specific membrane antigen), biotin-tagged (human) (UniProt Q04609); assay: native ELISA, streptavidin-captured biotin-tagged PSMA, Fab titrated
[5] = molecular target: recombinant human PSMA (prostate-specific membrane antigen), biotin-tagged (human) (UniProt Q04609); assay: ELISA on plates coated with recombinant PSMA (biotin-tagged, captured on streptavidin), two-fold dilution series, goat anti-human-HRP and TMB
[6] = molecular target: human PSMA displayed on the surface of LNCaP cells (human) (UniProt Q04609); assay: flow cytometry on LNCaP cells, Fab titrated
[7] = molecular target: human PSMA displayed on the surface of LNCaP cells (human) (UniProt Q04609); assay: flow cytometry titration on cells (three-fold dilution series, anti-Strep antibody and goat anti-mouse Alexa Fluor 647); the sheet does not name the cell line, the text gives the curves as binding to cell-surface PSMA (LNCaP)

Sequence of human PSMA displayed on the surface of LNCaP cells (human) (Q04609 whole entry): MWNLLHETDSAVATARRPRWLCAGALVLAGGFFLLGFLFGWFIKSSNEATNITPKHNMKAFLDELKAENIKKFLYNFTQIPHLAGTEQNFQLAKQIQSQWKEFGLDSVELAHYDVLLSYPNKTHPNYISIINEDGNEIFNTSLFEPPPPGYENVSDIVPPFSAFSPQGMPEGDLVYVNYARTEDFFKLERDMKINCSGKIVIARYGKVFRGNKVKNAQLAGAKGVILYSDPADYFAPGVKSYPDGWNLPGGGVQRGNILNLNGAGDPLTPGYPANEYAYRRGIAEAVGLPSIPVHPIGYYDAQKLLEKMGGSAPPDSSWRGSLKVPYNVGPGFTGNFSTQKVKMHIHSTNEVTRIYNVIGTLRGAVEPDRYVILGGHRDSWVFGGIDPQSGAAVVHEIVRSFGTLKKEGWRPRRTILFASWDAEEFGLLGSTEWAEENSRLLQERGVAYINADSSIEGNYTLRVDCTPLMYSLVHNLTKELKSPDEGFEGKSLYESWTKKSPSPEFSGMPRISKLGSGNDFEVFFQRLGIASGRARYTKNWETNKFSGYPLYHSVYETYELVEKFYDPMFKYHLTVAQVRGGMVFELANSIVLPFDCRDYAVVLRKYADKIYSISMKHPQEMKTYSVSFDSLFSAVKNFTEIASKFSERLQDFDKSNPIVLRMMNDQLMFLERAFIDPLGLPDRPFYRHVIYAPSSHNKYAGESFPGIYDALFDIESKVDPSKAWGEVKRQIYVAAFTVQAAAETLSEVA
Sequence of recombinant human PSMA (prostate-specific membrane antigen), biotin-tagged (human) (Q04609 44-750 limits assumed): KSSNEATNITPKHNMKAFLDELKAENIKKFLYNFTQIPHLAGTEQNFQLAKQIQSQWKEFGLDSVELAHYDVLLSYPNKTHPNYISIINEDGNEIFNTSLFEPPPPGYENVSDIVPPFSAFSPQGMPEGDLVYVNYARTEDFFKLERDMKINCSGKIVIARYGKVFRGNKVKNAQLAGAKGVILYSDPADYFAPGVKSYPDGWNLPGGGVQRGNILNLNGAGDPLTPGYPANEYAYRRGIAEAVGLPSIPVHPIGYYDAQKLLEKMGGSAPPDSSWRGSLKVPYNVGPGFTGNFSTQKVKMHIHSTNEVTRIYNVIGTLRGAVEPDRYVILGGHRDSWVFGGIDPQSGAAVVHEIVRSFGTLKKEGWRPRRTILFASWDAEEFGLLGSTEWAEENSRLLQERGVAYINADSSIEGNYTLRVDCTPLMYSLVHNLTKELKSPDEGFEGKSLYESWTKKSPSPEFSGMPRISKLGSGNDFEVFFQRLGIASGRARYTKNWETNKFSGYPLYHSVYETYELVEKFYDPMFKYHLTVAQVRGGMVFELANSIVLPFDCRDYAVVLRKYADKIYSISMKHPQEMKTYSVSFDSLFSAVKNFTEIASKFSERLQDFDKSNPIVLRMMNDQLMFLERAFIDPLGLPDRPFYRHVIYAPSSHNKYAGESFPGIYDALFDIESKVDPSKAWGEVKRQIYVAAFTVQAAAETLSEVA

Kd [1] [nM]	EC50 (read off the curve) [2] [nM]	Kd [3] [nM]	Kd [4] [nM]	EC50 (read off the curve) [5] [nM]	Kd [6] [nM]	EC50 (read off the curve) [7] [nM]	Substance
0.35	0.3	0.28					Chimeric 5D3 IgG1 (antibody)
			1.8	1	2.8	3	Chimeric Fab
